Our source for the Km, kcat and kcat/Km values is the PETadex activity labels (doi:10.1016/s0021-9258(17)37371-4).

The chains are these.
B1: unnamed (protein)
chain: MRPPQCLLHTPSLASPLLLLLLWLLGGGVGAEGREDAELLVTVRGGRLRGIRLKTPGGPVSAFLGIPFAEPPMGPRRFLPPEPKQPWSGVVDATTFQSVCYQYVDTLYPGFEGTEMWNPNRELSEDCLYLNVWTPYPRPTSPTPVLVWIYGGGFASGASSLDVYDGRFLVQAERTVLVSMNYRVGAFGFLALPGSREAPGNVGLLDQRLALQWVQENVAAFGGDPTSVTLFGESAGAASVGMHLLSPPSRGLFHRAVLQSGAPNGPWATVGMGEARRRATQLAHLVGCPPGGTGGNDTELVACLRTRPAQVLVNHEWHVLPQESVFRFSFVPVVDGDFLSDTPEALINAGDFHGLQVLVGVVKDEGSYFLVYGAPGFSKDNESLISRAEFLAGVRVGVPQVSDLAAEAVVLHYTDWLHPEDPARLREALSDVVGDHNVVCPVAQLAGRLAAQGARVYAYVFEHRASTLSWPLWMGVPHGYEIEFIFGIPLDPSRNYTAEEKIFAQRLMRYWANFARTGDPNEPRDPKAPQWPPYTAGAQQYVSLDLRPLEVRRGLRAQACAFWNRFLPKLLSATDTLDEAERQWKAEFHRWSSYMVHWKNQFDHYSKQDRCSDL
B2: unnamed (protein)
chain: B1 chain with E316A, W317A
B3: unnamed (protein)
chain: B1 chain with A155Y, F369A
B4: unnamed (protein)
chain: B1 chain with Y103A
B5: unnamed (protein)
chain: B1 chain with A155Y, W317A
B6: unnamed (protein)
chain: B1 chain with A155Y, Y368F
B7: unnamed (protein)
chain: B1 chain with A155Y
B8: unnamed (protein)
chain: B1 chain with W117A, A155Y

Residue numbers refer to the chain shown, from its start.

Substrate in the data set: Acetylcholine
Particulars: pH 8; 27 °C.
Turning to B1, the Km was determined as 250 µM, the kcat was 4170 s⁻¹ and the kcat/Km came to 1.67e+07 M⁻¹ s⁻¹.
For the protein B2, the Km is 280 µM, the kcat was 2330 s⁻¹ and the kcat/Km was determined as 8.33e+06 M⁻¹ s⁻¹.
On the same counts, the results for B3 are 140 µM, 2830 s⁻¹ and 2.02e+07 M⁻¹ s⁻¹.
The corresponding values for B4 are 70 µM, 4170 s⁻¹ and 5.95e+07 M⁻¹ s⁻¹.
On the same counts, the results for B5 are 200 µM, 5330 s⁻¹ and 2.67e+07 M⁻¹ s⁻¹.
With B6, the Km came out at 160 µM, the kcat came out at 6670 s⁻¹ and the kcat/Km is 4.17e+07 M⁻¹ s⁻¹.
B7: the Km is 120 µM, the kcat is 7000 s⁻¹ and the kcat/Km amounted to 5.83e+07 M⁻¹ s⁻¹.
On to B8, for which the Km came to 93000 µM, the kcat came to 1330 s⁻¹ and the kcat/Km was found to be 14300 M⁻¹ s⁻¹.
